± gives the standard deviation.

The data set is described as follows: protein stability index of a GFP-peptide fusion (GPS, HEK-293T) (PSI 1-6); higher = more stable.
Setting [1] is: treatment: DMSO, c terminus: a fixed tail appended.
The mark [2] stands for this setting: treatment: MLN4924 1 uM, 8 h, c terminus: a fixed tail appended.
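Further: 24-mer peptide tiles fused after GFP, lentivirally expressed, FACS-sorted into six equal bins by GFP/DsRed ratio, decoded by Illumina sequencing, PSI is the read-weighted mean bin number.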

Take DERVLENVEHYQELKKMVQQSDLG [ALG2]: the protein stability index is, setting by setting: under setting [1], 4.95 ± 0.38; under setting [2], 4.8 ± 0.28.

For the sequence DESQISAEEAEDHGRIPDPDDFVP [FAM189A2], the protein stability index under setting [1] amounted to 5.6 ± 0.2 and the protein stability index under setting [2] was found to be 5.61 ± 0.15.

With DETIGFEDILNDPSQSEVMGEPHL [POMP], the protein stability index worked out at 5.5 ± 0.15 under setting [1] and 5.46 ± 0.086 under setting [2].

Regarding DFGACDGGLLTGNEKITMQNLNDR [KRT13], the protein stability index by setting is: under setting [1], 4.57 ± 0.33; under setting [2], 4.53 ± 0.37.

As to DGIDRWIKEIDEHAPGVPKILVGN [RAB40B], the protein stability index reads like this: under setting [1], 3.68 ± 0.28; under setting [2], 3.85 ± 0.33.

Take DGNLCLHVPNPPSGISFPSVVDHP [HESX1]: the protein stability index reads like this: under setting [1], 3.73 ± 0.5; under setting [2], 3.78 ± 0.15.

In the case of DGVITASEDRTIRVWLKRDSGQYW [WDFY1], the protein stability index reads like this: under setting [1], 2.65 ± 0.65; under setting [2], 2.76 ± 0.18.

Sequence DHKPKLCRLAKGENGYGFHLNAIR [PDZK1] displayed a protein stability index under setting [1] of 2.25 ± 0.24 and a protein stability index under setting [2] of 2.36 ± 0.56.

DICLAQLEELGTLNVFQTVSRMRT [PTPN9] yielded a protein stability index under setting [1] of 2.97 ± 0.22 and a protein stability index under setting [2] of 2.79 ± 0.33.

In the case of DKDRRFVFSYFLATDMISIFEPPV [EFHC1], the protein stability index is, setting by setting: under setting [1], 2.38 ± 0.47; under setting [2], 2.72 ± 0.61.

For the sequence DKLSQKSSSSKLSRSPLKIVKKPK [EPB41L3], the protein stability index reads like this: under setting [1], 4.3 ± 0.66; under setting [2], 4.79 ± 0.23.

On to DKVLRFAQQIRLHHFNSSHLEIDD [MYORG], for which the protein stability index amounted to 2.93 ± 0.17 under setting [1] and 2.95 ± 0.23 under setting [2].

On to DLKTLSDDIKESLESEGKNSKKEE [ATE1], for which the protein stability index by setting is: under setting [1], 5.31 ± 0.54; under setting [2], 5.32 ± 0.31.

Regarding DPELKNLFDMCGISEAQLKDRETS [WASL], the protein stability index is 4.72 ± 0.063 under setting [1] and 4.68 ± 0.21 under setting [2].

For the sequence DPKKLLTQYFVQENYLEYRQVPGS [MAGEA6], the protein stability index is, setting by setting: under setting [1], 3.12 ± 0.1; under setting [2], 3 ± 0.39.

With DRDSIWKCLKFLGSRHPTLVLPLV [INTS4], the protein stability index under setting [1] was found to be 2.15 ± 0.24 and the protein stability index under setting [2] is 2.15 ± 0.22.

Consider DSFDKFDFCEPSFVTGNCLEISPD [PCMTD2], for which the protein stability index amounted to 4.36 ± 0.12 under setting [1] and 4.66 ± 0.46 under setting [2].

For DSISLHQPCNPPAPAGDKGFQPPS [DMRTC1], the protein stability index is 5 ± 0.27 under setting [1] and 5 ± 0.16 under setting [2].

As to DTDVDMEGLRRRRGREAGPPQPMV [PBXIP1], the protein stability index is 4.75 ± 0.36 under setting [1] and 5.04 ± 0.11 under setting [2].

As to DTREEKRFLGEGHHRVQENQMDKA [CHGB], the protein stability index turned out to be 5.25 ± 0.13 under setting [1] and 5.16 ± 0.25 under setting [2].

Take DVKKEKLSPDIMKDAYVQKLVKVC [TENT5D]: the protein stability index stood at 2.94 ± 0.52 under setting [1] and 3.1 ± 0.076 under setting [2].

As for DVLSCEYYSPILDQWTPIAAMLRG [KLHL13], the protein stability index reads like this: under setting [1], 2.2 ± 0.46; under setting [2], 2.36 ± 0.23.

As for DVRLDREHRVAGIFPRLSFKDKST [CLPTM1], the protein stability index came to 3.79 ± 0.063 under setting [1] and 4 ± 0.089 under setting [2].

Turning to DYEAGQHMEDPRRAGKMLMTLPLL [ESRRG], the protein stability index reads like this: under setting [1], 3.56 ± 0.29; under setting [2], 3.52 ± 0.15.

In the case of EADENENITVVKGIRLSENVIDRM [CHCHD3], the protein stability index worked out at 4.75 ± 0.17 under setting [1] and 4.7 ± 0.11 under setting [2].

Take EAGAPGEEDIQGPTKADTEKWAEG [CHGB]: the protein stability index under setting [1] was 5.64 ± 0.29 and the protein stability index under setting [2] came to 5.59 ± 0.32.

EAGGKQKAVEEELDAEDRPAWNSK [SLC6A17] had a protein stability index under setting [1] of 5.62 ± 0.16 and a protein stability index under setting [2] of 5.57 ± 0.15.

For EAGSAGHVEVARLLLENGAGINTH [ANKRD17], the protein stability index runs as follows: under setting [1], 4.11 ± 0.36; under setting [2], 4.25 ± 0.26.

As for EAIKGLNGQKPLGAAEPITVKFAN [ELAVL3], the protein stability index by setting is: under setting [1], 3.94 ± 0.22; under setting [2], 4.06 ± 0.28.

On to EAQISDPFAPEPTPPTTTAEIATA [SNAP91], for which the protein stability index worked out at 5.42 ± 0.28 under setting [1] and 5.46 ± 0.13 under setting [2].

Take EARSLEHTLPVNRETLKRKVSGNR [ESR2]: the protein stability index runs as follows: under setting [1], 4.95 ± 0.27; under setting [2], 5.16 ± 0.2.

On to EAVSTLLGAVAVFAVGYIKISWST [SLC19A2], for which the protein stability index amounted to 2.82 ± 0.21 under setting [1] and 2.98 ± 0.73 under setting [2].

For EDEKQRLQNEVRQLTEKLARVNEN [SSNA1], the protein stability index came to 4.99 ± 0.35 under setting [1] and 5.17 ± 0.24 under setting [2].

On to EDGFGEHPFYHCLVAEVPKEHWTP [SAT1], for which the protein stability index reads like this: under setting [1], 3.05 ± 0.22; under setting [2], 3.12 ± 0.27.

On to EDGIHTLTCALMLLNTDLHGHNIG [PSD2], for which the protein stability index stood at 2.78 ± 0.5 under setting [1] and 2.75 ± 0.36 under setting [2].

Consider EDKTFGLKNKKGAKQQKFIKAVTH [ZC3H15], for which the protein stability index is, setting by setting: under setting [1], 4.26 ± 0.3; under setting [2], 4.39 ± 0.23.

Regarding EDSNWEKSPDNEDSGDSKDIRLTL [GOLPH3L], the protein stability index runs as follows: under setting [1], 5.37 ± 0.16; under setting [2], 5.37 ± 0.12.

For EDTHQSPEPEDEPGGPGAMTESLE [RSPH3], the protein stability index runs as follows: under setting [1], 5.43 ± 0.38; under setting [2], 5.64 ± 0.14.

Sequence EEEEAAMYEEEMEREEITTKKRKL [FAM50A] had a protein stability index under setting [1] of 5.66 ± 0.32 and a protein stability index under setting [2] of 5.38 ± 0.34.

In the case of EEEMRSHYVAQTGILWLLMNNCFL [GAGE1], the protein stability index under setting [1] stood at 3.15 ± 0.36 and the protein stability index under setting [2] was determined as 3.2 ± 0.35.

In the case of EEKEAWYREESDSLGQDLRRLRQE [DAPK3], the protein stability index stood at 5.28 ± 0.31 under setting [1] and 5.35 ± 0.17 under setting [2].

With EENELTSLAEDLLGLTDPNGGLA [TRADD], the protein stability index is, setting by setting: (treatment: DMSO, c terminus: native) 5.14 ± 0.19; (treatment: MLN4924 1 uM, 8 h, c terminus: native) 5.06 ± 0.43.

EESGSSSASEEEDTKPKPTKRKRK [INTS3]: the protein stability index worked out at 5.55 ± 0.17 under setting [1] and 5.57 ± 0.29 under setting [2].

In the case of EGDTVSQELLDTVLVNLVPAHKNL [PDS5B], the protein stability index under setting [1] was 3.65 ± 0.24 and the protein stability index under setting [2] turned out to be 3.94 ± 0.34.

Turning to EGIRQTEYTLTGLKFDMKYMNFRV [FSD1], the protein stability index turned out to be 2.67 ± 0.54 under setting [1] and 2.56 ± 0.52 under setting [2].

As to EGLLNTYQELLGLSFEQMTDAHVW [NLN], the protein stability index by setting is: under setting [1], 2.41 ± 0.32; under setting [2], 2.49 ± 0.38.

For the sequence EGQARCLAHLGRHMEALEIAANLE [C8orf76], the protein stability index was 3.6 ± 0.42 under setting [1] and 3.74 ± 0.39 under setting [2].

Consider EIFGPVTCVVPFDSEEEVIERANN [ALDH8A1], for which the protein stability index stood at 5.18 ± 0.17 under setting [1] and 5.17 ± 0.22 under setting [2].

Consider EIHSKTTAYSRLNETQPIDLSGLP [RNF180], for which the protein stability index amounted to 3.6 ± 0.14 under setting [1] and 3.75 ± 0.25 under setting [2].

Take EIVSIWILSFILAIPEAIGFVMVP [EDNRA]: the protein stability index under setting [1] was determined as 2.86 ± 0.18 and the protein stability index under setting [2] came out at 3.03 ± 0.17.

As for EKELVFDIDMTDYDDVRRCCSSAD [PRIM1], the protein stability index by setting is: under setting [1], 4.73 ± 0.27; under setting [2], 4.7 ± 0.35.

As for EKEYKTYKENFLKRFQLTKLPPYL [USP39], the protein stability index was determined as 2.5 ± 0.17 under setting [1] and 2.93 ± 0.28 under setting [2].

For the sequence EKKESLGAAQEALSIQLQPKETQP [ZNF232], the protein stability index by setting is: under setting [1], 5.35 ± 0.35; under setting [2], 5.5 ± 0.19.

As to ELIDNLKEAQYIRTELVEQAFRAI [PCMTD2], the protein stability index was found to be 2.54 ± 0.32 under setting [1] and 2.29 ± 0.44 under setting [2].

With ELIRNIQELLKRTIMQAVSQIRLN [TEKT4], the protein stability index is, setting by setting: under setting [1], 3 ± 0.46; under setting [2], 2.77 ± 0.53.

On to ELKEKEATLCLEFLLQNDANPSIR [ANKRD44], for which the protein stability index came out at 3.19 ± 0.096 under setting [1] and 3.25 ± 0.31 under setting [2].

With ELQKIVQAGDKDLDGQLDFEEFVH [SLC25A25], the protein stability index reads like this: under setting [1], 3.93 ± 0.046; under setting [2], 4.19 ± 0.21.

Consider ELSAIGSDTTPLPSWAALNSSTWG [SNX8], for which the protein stability index came out at 2.94 ± 0.36 under setting [1] and 2.75 ± 0.18 under setting [2].

In turn, ELSEKNFQLNQDKMNFSTLRNIQG [POMP] registered a protein stability index under setting [1] of 2.69 ± 0.59 and a protein stability index under setting [2] of 3.27 ± 0.44.

EMRISESAASGARFPLDSAQDPDV [PCDHGC5]: the protein stability index under setting [1] is 5.38 ± 0.21 and the protein stability index under setting [2] was 5.35 ± 0.16.

As to EMSLPEVQKDKYPEEFSLLKLQTK [SPATS1], the protein stability index stood at 4.29 ± 0.28 under setting [1] and 4.04 ± 0.34 under setting [2].

Consider EPELQVGIDIMKTSFPGRGSIPEF [AASDHPPT], for which the protein stability index reads like this: under setting [1], 3.67 ± 0.22; under setting [2], 3.61 ± 0.29.

As for EPESKNAPHSQGEYDVYSTFQSHE [PPP2R2C], the protein stability index was determined as 5.19 ± 0.15 under setting [1] and 5.19 ± 0.15 under setting [2].

EPREFSSRNFGVRNQGNFSVVGTV [ZC2HC1C]: the protein stability index came to 3.06 ± 0.31 under setting [1] and 3.01 ± 0.24 under setting [2].

Take EQILELLVLEQFLTILPTEIETWV [ZNF449]: the protein stability index was 3.15 ± 0.38 under setting [1] and 2.73 ± 0.52 under setting [2].

Consider EQPRLEFLMRKCGWFVRELRVEFA [FBXO33], for which the protein stability index by setting is: under setting [1], 2.64 ± 0.34; under setting [2], 2.12 ± 0.24.

As to EQTYHAKLENARLSSEMNTSTVNS [LMNB1], the protein stability index by setting is: under setting [1], 4.88 ± 0.14; under setting [2], 5.03 ± 0.19.

Turning to ERNRMHGLNDALDNLRKVVPCYSK [NEUROD6], the protein stability index reads like this: under setting [1], 2.75 ± 0.47; under setting [2], 3.02 ± 0.32.

In the case of ERQVLPDPEVLEAVGDRQDGLREQ [PBXIP1], the protein stability index runs as follows: under setting [1], 5.54 ± 0.26; under setting [2], 5.64 ± 0.1.

As for ERVDGRRLVYKFGKNSSGWKEEEV [ELF3], the protein stability index is, setting by setting: under setting [1], 4.11 ± 0.37; under setting [2], 4.39 ± 0.15.

ERVEAFSDGVYAIVATLLILDICE [TMEM175]: the protein stability index is 3.05 ± 0.15 under setting [1] and 3.15 ± 0.22 under setting [2].

On to ERVVINISGLRFETQLKTLAQFPN [KCNA1], for which the protein stability index amounted to 2.47 ± 0.29 under setting [1] and 2.32 ± 0.55 under setting [2].
